From US6991909B2, “Enkurin and uses thereof” (University of Massachusetts, priority 2002, dated 2006)

T1: TRPC2 stably expressed in HEK-293 cells (mouse, UniProt Q9R244 1-1172)
T1 sequence (looked up): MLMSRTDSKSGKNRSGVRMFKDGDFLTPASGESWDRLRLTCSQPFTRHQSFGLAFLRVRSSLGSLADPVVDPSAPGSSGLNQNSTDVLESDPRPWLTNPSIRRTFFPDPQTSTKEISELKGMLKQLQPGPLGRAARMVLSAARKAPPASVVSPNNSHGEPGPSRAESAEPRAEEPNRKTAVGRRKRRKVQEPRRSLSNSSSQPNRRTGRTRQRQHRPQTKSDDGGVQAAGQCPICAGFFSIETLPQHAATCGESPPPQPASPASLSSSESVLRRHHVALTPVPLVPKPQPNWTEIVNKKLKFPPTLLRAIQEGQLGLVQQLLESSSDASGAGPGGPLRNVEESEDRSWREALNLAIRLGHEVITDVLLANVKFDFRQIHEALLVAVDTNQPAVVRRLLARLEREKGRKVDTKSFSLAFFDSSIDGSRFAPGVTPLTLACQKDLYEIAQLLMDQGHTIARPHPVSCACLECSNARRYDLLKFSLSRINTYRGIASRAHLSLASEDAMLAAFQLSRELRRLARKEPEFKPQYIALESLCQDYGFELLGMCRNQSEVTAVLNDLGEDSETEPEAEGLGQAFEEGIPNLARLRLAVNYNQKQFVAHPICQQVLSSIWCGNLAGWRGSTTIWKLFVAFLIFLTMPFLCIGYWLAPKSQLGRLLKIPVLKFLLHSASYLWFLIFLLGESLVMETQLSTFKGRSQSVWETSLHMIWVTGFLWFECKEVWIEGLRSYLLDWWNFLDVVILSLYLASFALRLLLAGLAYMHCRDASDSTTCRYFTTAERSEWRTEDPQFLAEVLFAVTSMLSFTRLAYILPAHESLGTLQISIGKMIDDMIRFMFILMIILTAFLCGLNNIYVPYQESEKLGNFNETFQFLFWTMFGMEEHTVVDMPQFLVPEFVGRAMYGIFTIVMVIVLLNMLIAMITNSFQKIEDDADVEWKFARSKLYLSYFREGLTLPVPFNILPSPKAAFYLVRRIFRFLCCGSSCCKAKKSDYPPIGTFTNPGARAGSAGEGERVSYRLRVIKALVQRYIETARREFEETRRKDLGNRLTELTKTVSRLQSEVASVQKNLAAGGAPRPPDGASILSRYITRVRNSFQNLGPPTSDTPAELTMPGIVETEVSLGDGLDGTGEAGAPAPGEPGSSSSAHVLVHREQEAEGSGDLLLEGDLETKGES

T2: enkurin-HA (Mus musculus (Mouse)) (UniProt Q6SP97)
T2 sequence: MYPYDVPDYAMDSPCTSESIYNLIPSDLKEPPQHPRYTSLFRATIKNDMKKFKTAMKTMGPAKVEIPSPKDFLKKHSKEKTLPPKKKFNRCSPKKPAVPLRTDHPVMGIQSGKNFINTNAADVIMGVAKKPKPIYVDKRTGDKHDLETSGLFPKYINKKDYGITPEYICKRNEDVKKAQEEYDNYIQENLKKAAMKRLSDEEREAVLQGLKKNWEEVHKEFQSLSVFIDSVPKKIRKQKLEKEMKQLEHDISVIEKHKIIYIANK

B1: enkurin (other)
chain: MDSPCTSESIYNLIPSDLKEPPQHPRYTSLFRATIKNDMKKFKTAMKTMGPAKVEIPSPKDFLKKHSKEKTLPPKKKFNRCSPKKPAVPLRTDHPVMGIQSGKNFINTNAADVIMGVAKKPKPIYVDKRTGDKHDLETSGLFPKYINKKDYGITPEYICKRNEDVKKAQEEYDNYIQENLKKAAMKRLSDEEREAVLQGLKKNWEEVHKEFQSLSVFIDSVPKKIRKQKLEKEMKQLEHDISVIEKHKIIYIANK

Key:
[1] = target: T1, TRPC2 stably expressed in HEK-293 cells; assay: cell-based or functional assay
[2] = test system: TRPC2 channel; assay: Perforated whole cell patch clamp of ATP-evoked currents in HEK-293 cells stably transfected with TRPC2; assay type: cell-based, mouse
Source text: The effects of enkurin on the ion channel activity of TRPC2 were examined using HEK-293 cells that were stably transfected with TRPC2. HEK cells provide a good model for the study of receptor-activated ion channels since they have very low levels of endogenous ion channel activity and thus provide a relatively uncomplicated model for the study of exogenous channels. These cells also have endogenous […] receptors that regulate phospholipase C (PLC), thereby providing a facile and reversible means for activating PLC-dependent ion channels, HEK cells have been used to study TRPC2 function (Jungnickel et al., supra 2001).
In experiments on the TRPC2 channel in HEK cells, ion channel activity was measured using the perforated, whole cell patch clamp. This configuration permits the determination of ion currents while simultaneously maintaining cytoplasmic integrity.
ATP ([…]) evoked an inward current in TRPC2-expressing HEK cells (Derassi et al, 1998, Trends Cell Biol 8:84-87) that reaches peak amplitude in 20-30 seconds. However, when TRPC2 and enkurin were co-expressed (trace 2), the evoked current was 5-6 times larger (131+/−12 pA, n=5). This current activates about 25 times faster (peak amplitude in 0.5-1 seconds) and inactivates more rapidly. Total TRPC2 current, as estimated by integrating the areas beneath these traces, is increased nine +/−two-fold by enkurin. […] Anti-RDAS blocked >95% of the ATP-evoked current in cells that had been co-transfected with TRPC2 and with enkurin (trace 2). Thus, enkurin is stimulating TRPC2 currents, not acting at some undefined endogenous channel or forming a channel itself.
In the assay, HEK cells are used that constitutively express TRPC2. Such cell lines can be produced using methods known in the art. The line should express reproducible levels of TRPC2 current. In a line that we developed, enkurin increased the peak amplitude of ATP-evoked TRPC2 currents by >5-6 fold and the activation and inactivation rates by 25 fold. In addition, this signal can be “zero-ed” using anti-RDAS, the TRPC2 blocking antibody (FIG. 7). Given this magnitude of current enhancement by enkurin in such a cell line, even subtle effects of enkurin mutants, candidate compounds, or antisense molecules are detectable.

[3] = target: T2, enkurin-HA (Mus musculus (Mouse)); assay: co-immunoprecipitation with anti-HA-Sepharose from HEK/TRPC2 cell extracts, blot with anti-RDAS; peptide competes with TRPC2
[4] = TRPC2 and enkurin co-expressed vs TRPC2 alone

Molecule | activation rate of the ATP-evoked current [1] [fold] | total TRPC2 current (integrated area beneath traces) [1] [fold] | time to peak amplitude ([2]; TRPC2 and enkurin co-expressed) [s] | current activates faster [2, 4] | increase of peak amplitude of ATP-evoked TRPC2 current [2, 4] | increase of total TRPC2 current, estimated by integrating areas beneath traces [2, 4] | ATP-evoked current ([2]; TRPC2 and enkurin co-expressed, n=5) | stimulation of ATP-evoked current relative to TRPC2 alone ([2]; enkurin co-expressed with deletion mutant of TRPC2 lacking the PKD1 domain) | reduction of co-immunoprecipitation of TRPC2 with enkurin-HA [3] [%]
B1 | ~25 | 9 | 0.5 to 1 | about 25 times | 5-6 fold | nine +/−two | 131+/−12 pA | no stimulation | 
LPQHAATCGESPPPQPASPASLSSS [TRPC2336-361 peptide] |  |  |  |  |  |  |  |  | > 90
